# Earlier results in article PMC7042059.
# Target: Pyruvate kinase M2 (Homo sapiens) (UniProt P14618)
# Conditions: cited from earlier work
# Sequence of Pyruvate kinase M2 (P14618 2-531): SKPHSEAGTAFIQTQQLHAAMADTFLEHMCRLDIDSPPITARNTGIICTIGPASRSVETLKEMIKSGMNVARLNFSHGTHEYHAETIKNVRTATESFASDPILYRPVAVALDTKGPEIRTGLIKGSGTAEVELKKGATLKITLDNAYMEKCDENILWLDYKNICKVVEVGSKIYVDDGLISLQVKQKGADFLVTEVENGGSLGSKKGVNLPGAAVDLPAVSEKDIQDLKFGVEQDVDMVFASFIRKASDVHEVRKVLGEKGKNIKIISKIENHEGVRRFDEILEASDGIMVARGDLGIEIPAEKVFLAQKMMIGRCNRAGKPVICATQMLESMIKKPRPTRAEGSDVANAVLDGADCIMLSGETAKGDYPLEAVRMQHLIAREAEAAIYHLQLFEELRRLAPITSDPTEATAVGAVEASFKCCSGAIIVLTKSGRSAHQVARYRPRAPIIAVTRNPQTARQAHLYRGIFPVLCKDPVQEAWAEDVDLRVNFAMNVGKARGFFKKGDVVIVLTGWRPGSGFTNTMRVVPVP
substance,measurement,value
Pyruvate kinase M2 (from UniProt P14618),Kd,1000 nM
